The values below come from the nanobody polyreactivity screen of Harvey et al. (2022).

The series in a line: yeast display, Sf9 membrane polyspecificity reagent, FACS + sequencing; frameworks hold sequencing errors. The essentials:
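Galactose-induced (36–48 hours) yeast carrying a synthetic nanobody display library were exposed to 10% biotinylated, detergent-solubilized Sf9 membrane reagent at 4 °C for 1 hour. FACS followed streptavidin microbead enrichment, using low and high (top ~1%) gates for expression (anti-HA) and reagent binding (streptavidin). Colony PCR, MiSeq 2 × 250 sequencing and CDR-length filtering followed. Labels for polyreactivity reflect the gate of origin.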
In the case of “QVQLVESGGGLVQAGGSLRLSCAASGSTFGYNAMGWYRQSPGKERELVAAISYSGGSTYYADSVKGRFTISRDNAKNTVYLLMNSLKPEDTAVYYCAKETNRVGRYHWGQGTQVNVSS”, the “polyreactivity (PSR sort gate)” value was “low polyreactivity”. As for “QVQLVESGGGLVQAGGSLRLSCAASGSTFGYNTMGWYRQAPGKERELVAAITSGGRTYYADSVKGRFTISRDNAKNTVYLQMNILKPEDTAVYYCAAYYWWGYPENDYWGQGTQVTVSS”, the entry is “high polyreactivity”; as for “QVQLVESGGGLVQAGGSLRLSCAASGSTFGYYAMGWSRQAPGKERELVAAIRWSGGSTYADSVKGRFTISRDNAKNTVYLQMNSLKPEDTAVYYCAQYRWYGSVLGGYWGQGTQVTVSS”, “high polyreactivity”; as for “QVQLVESGGGLVQAGGSLRLSCAASGSTFGYYAMGWYRQAPGKERELVAAIRYSGGTTYYADSVKGRFTISRDNAKNTVYLQMNSLKPEDTAVYYCAAVYTSGYYYWGQGTQVTVSS”, “high polyreactivity”.

In the case of “QVQLVESGGGLVQAGGSLRLSCAASGSTFGYYAMGWYRQAPGKERELVAAISWSGTRTYYADSVKGRFTISRDNAKNTVYLQMNSLKPEDTAVYYCAVRISRPREYYYWGQGTQVTVSS”, the “polyreactivity (PSR sort gate)” value is “high polyreactivity”.

As for “QVQLVESGGGLVQAGGSLRLSCAASGSTFGYYAMGWYRQAPGKERELVAAISYRSGSTYYADSVKGRFTISRDNAKNTVYLQMNSLKPEDTAVYYCAAVIQGQQRYEYWGQGTQVTVSS”, the “polyreactivity (PSR sort gate)” value is “high polyreactivity”. For “QVQLVESGGGLVQAGGSLRLSCAASGSTFGYYAMGWYRQAPGKERELVAAISYSGGSTYYADSVKGRFTISRDNAKNTVYLQMNSLKPEDTAVYYCAARLTRQMYYWGQGTQVTVSS” the value was “high polyreactivity”; for “QVQLVESGGGLVQAGGSLRLSCAASGSTFGYYAMGWYRQAPGKERELVAAITRRSGRTYYADSVKGRFTISRDNAKNTVYLQMNSLKPEDTAVYYCNKVYPTYYYYRGGPTEYDYWGQGTQVTVSS”, “high polyreactivity”. On to “QVQLVESGGGLVQAGGSLRLSCAASGSTFGYYTMGWYSQAPGKEWELVAAITWSGGSTYYADSVKGRFTISRDNAKNTASLQMNSLKPEDTAVYYCNTDQDLVRSYDYWGQGTQVTVSS”, for which the “polyreactivity (PSR sort gate)” value is “low polyreactivity”.

“QVQLVESGGGLVQAGGSLRLSCAASGSTFHAYAMGWYRQAPGKERELVAGISWSGGDTTYADSVKGRFTISGDNAKNTVYLQMNSLKPEDTAVYYCAAAGRDPDNYLILNYWGQGTQVTVSS”: the “polyreactivity (PSR sort gate)” value is “low polyreactivity”.

Regarding “QVQLVESGGGLVQAGGSLRLSCAASGSTFHGYAMGWYRQEPGKERELVAAITSGDSTNYADSVKGRFTISRDNAKNTVYLQMNSLKPEDTAVYYCNAEGSSVLTGYWGYPPYWDTYDYWGQGTQVTVSS”, the “polyreactivity (PSR sort gate)” value is “low polyreactivity”. With “QVQLVESGGGLVQAGGSLRLSCAASGSTFHNYAMGWYRQAPGKERELVAGISVRGGGTYYADSVKGRFTISRDNAKNTVYLQMNSLKPEDTAVYYCAKRSRYYYRYDYWGQGTQVTVSS”, the “polyreactivity (PSR sort gate)” value is recorded as “high polyreactivity”. Regarding “QVQLVESGGGLVQAGGSLRLSCAASGSTFHPNAMGWYRQAPVKERELVAAISRGGSTNYADSVKGRFTISRDNAKNTVYLQMISLKPEDSAVYYCAKDFFGISSDPVVMDYWGQGTQVTVSS”, the “polyreactivity (PSR sort gate)” value is “low polyreactivity”. For “QVQLVESGGGLVQAGGSLRLSCAASGSTFHRNAMGWYRQAPGKERELVAAISFSGGRTYYADSVKGRFTISRDNAKNTVYLQMNSLKPEDTAVYYCAAVTASPGSYPDDYWGQGTQVTVSS” the value was “low polyreactivity”; for “QVQLVESGGGLVQAGGSLRLSCAASGSTFHRNAMGWYRQAPGKERELVASISIGGSTNYADSVKGRYTISRDNAKNTVYLQMNSLKPEDTAVYYCATEPNPRRPRVDYDYWGQGTQVTVSS”, “low polyreactivity”.

Turning to “QVQLVESGGGLVQAGGSLRLSCAASGSTFHRYAMGWYRQAPGKERELVATINLNTGSTYADSVKGRFTISRDNAKNTVYLQMNSLKPEDTAVYYCAAYGRWPFTWYNYWGQGTQVTVSS”, the “polyreactivity (PSR sort gate)” value is recorded as “low polyreactivity”.
